These results are taken from paper PMC6532856, “A single dose of antibody-drug conjugate cures a stage 1 model of African trypanosomiasis” (PLoS Neglected Tropical Diseases, 2019).

Where a chain is given by its changes, count along the chain named.

In this assay the target is T1, Recombinant HpHbR N-terminal domain (Trypanosoma brucei haptoglobin-haemoglobin receptor) (Trypanosoma brucei brucei, biotin (only for the protein coated on streptavidin-coated plates; site not stated)).
T1 construct: also called HpHbR NTD; TbHpHbR NTD; source: recombinant, expressed as previously described [34]
Description: ELISA; phage ELISA: 10 ug/ml TbHpHbR NTD coated onto Nunc Maxisorp plates or 5 ug/mL biotinylated protein on streptavidin-coated plates overnight at 4°C; blocked phage supernatants 1 hr at room temperature; bound phage detected with anti-M13 HRP antibody; BSA and streptavidin in parallel. The note with it: one partner purified. (In general: ELISA stands for enzyme-linked immunosorbent assay.)

B1: Tb017 scFv (scFv, V domains shown)
VH: QVQLVQSGAEVKKPGSSVKVSCKASGGTFSSYAISWVRQAPGQGLEWMGGIIPIFGTANYAQKFQGRVTITADESTSTAYMELSSLRSEDTAVYYCARGWWYDLVFDYWGQGTLVTVSS
VL: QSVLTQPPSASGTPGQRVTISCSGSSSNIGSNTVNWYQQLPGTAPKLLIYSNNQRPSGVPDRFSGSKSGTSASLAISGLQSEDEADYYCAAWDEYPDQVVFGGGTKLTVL
notes: framework domains and CDR1-3 marked; source: phage produced from E. coli, phage-containing supernatant
In the case of B1, the binding result is “binds”.

B2: Tb085 scFv (scFv, V domains shown)
VH: B1 VH with G99E, W100G, Y102D, D103Y, L104G, V105W, Y108F
VL: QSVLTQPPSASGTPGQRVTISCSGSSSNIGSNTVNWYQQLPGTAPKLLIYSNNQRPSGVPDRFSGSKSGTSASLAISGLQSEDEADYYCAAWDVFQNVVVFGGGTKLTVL
notes: as for B1
For the molecule B2, the binding result is given as “binds”.

B3: Tb086 scFv (scFv, V domains shown)
VH: B1 VH with W101Y, D103H, L104G, V105G, F106I
VL: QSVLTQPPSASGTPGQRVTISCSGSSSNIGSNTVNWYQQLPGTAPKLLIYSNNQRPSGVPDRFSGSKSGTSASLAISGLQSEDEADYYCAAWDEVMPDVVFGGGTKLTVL
notes: as for B1
Regarding B3, the binding result was “binds”.

B4: Tb073 scFv (scFv, V domains shown)
VH: B1 VH with W101Y, Y102D, D103M, L104G, V105D, Y108M
VL: QSVLTQPPSASGTPGQRVTISCSGSSSNIGSNTVNWYQQLPGTAPKLLIYSNNQRPSGVPDRFSGSKSGTSASLAISGLQSEDEADYYCAAWDWHHGHVVVFGGGTKLTVL
notes: as for B1
With B4, the binding result is “binds”.

B5: Tb078 scFv (scFv, V domains shown)
VH: B1 VH with W101I, D103E, L104F, V105I, F106I, Y108A
VL: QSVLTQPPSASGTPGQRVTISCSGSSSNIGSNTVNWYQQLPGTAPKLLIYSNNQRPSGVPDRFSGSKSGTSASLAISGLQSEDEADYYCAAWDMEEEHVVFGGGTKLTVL
notes: as for B1
For the molecule B5, the binding result was “binds”.

B6: Tb074 scFv (scFv, V domains shown)
VH: B1 VH with Y102H, D103E, L104P, V105G
VL: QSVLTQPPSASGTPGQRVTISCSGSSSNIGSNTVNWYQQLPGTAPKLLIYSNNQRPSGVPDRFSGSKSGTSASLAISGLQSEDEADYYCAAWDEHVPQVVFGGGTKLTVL
notes: as for B1
As to B6, the binding result is given as “binds”.
